In PMC7929502:

Molecular target: T1, human Derlin-1 (hDERL1), full length, purified from Expi293F cells (human), Q9BUN8
T1 chain: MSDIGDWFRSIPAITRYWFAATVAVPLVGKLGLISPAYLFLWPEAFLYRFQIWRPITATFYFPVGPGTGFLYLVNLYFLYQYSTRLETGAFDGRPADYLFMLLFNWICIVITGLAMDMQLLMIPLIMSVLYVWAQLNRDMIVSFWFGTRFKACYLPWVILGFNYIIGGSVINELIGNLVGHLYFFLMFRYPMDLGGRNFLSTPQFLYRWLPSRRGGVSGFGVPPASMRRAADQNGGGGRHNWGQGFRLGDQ
Experiment: cryo-EM structure
Conditions: remark: other sources report otherwise

B1: human Derlin-1 (hDERL1), full length, purified from Expi293F cells, Q9BUN8-1 1-251 (natural protein)
chain: T1 chain
stoichiometry N: 4
